Where “and” joins values, the source holds several entries; their conditions need not be identical. Equal values may be shown once. Read-outs that look alike come from different tables or passages of the source.
Assays:
SXA [1] = target: T1, SXA (Selenomonas ruminantium, UniProt O52575); assay: biochemical
Description: Concentrations of D-xylose produced versus time were fitted to lines for determination of initial rates. For determination of steady-state kinetic parameters, initial rates were fitted to Eq. 2 (competitive inhibition).

[2] = target: T2, enzyme from Bacillus pumilus (Bacillus pumilus, UniProt P07129); details: pH 7, 25° C.; cited from earlier work
T2 sequence (P07129 1-535): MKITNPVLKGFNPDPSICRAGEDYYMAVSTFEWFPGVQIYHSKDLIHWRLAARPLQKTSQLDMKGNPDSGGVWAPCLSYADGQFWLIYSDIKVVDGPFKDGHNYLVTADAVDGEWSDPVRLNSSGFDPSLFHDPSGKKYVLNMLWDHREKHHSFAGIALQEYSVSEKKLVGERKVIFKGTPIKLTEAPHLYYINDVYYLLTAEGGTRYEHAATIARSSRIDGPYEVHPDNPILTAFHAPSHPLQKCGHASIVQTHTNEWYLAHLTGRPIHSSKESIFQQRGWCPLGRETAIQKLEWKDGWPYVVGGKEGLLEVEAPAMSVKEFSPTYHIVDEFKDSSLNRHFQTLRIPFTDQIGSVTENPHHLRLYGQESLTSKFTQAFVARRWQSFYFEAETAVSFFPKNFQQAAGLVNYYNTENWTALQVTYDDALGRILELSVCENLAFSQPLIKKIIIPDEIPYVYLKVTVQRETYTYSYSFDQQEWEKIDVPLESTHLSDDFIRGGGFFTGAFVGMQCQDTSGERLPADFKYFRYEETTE

SXA [3] = target: T1, SXA
Experimental: (§1) Samples (25 μL) were injected onto the column equilibrated with 0.1 M NaOH and developed with a 15-min linear gradient (0.1 M NaOH to 15 mM sodium acetate) at ˜25° C. and a flow rate of 1 mL min^−1.
(§2) Before (time=0 min) and after (time=1-6 min) initiating reactions with enzyme (7 μL), samples (0.05-0.1 mL) were removed and quenched with an equal volume of 0.5 M acetic acid and frozen. Following lyophilization, samples were dissolved in H2O and analyzed by HPLC. […] Results from two replicate reactions were combined to provide data points for the progress curves.
(§3) Before and after addition of enzyme (7 μL), 25-μl aliquots of the reaction mixtures were directly injected onto the HPLC column for quantification of product L-arabinose.

SXA [4] = target: T1, SXA; remark: listed apart in the source
Experimental: Samples (25 μL) were injected onto the column equilibrated with 0.1 M NaOH and developed with a 5-min linear gradient (0.1 M NaOH to 33 mM sodium acetate) at ˜25° C. and a flow rate of 1 mL min^−1.
Samples were kept on wet ice or the HPLC autosampler at 5° C. until analyzed by HPLC. Initial rates, calculated from linear regressions of the [D-xylose] produced versus time, were fitted to Eq. 1 to determine steady-state kinetic parameters.

[5] = substrate: O=[N+]([O-])c1ccc(O[C@@H]2O[C@@H](CO)[C@H](O)[C@H]2O)cc1; assay: purified protein, by the assay type
Experimental: Kinetics with 4NP Substrates
(§4) Two methods were employed for determining initial rates. […] Initial rates were calculated from fitting the absorbance readings versus time to a line (minimum of 4 points per reaction progression) and by using an extinction coefficient of 17.4 mM^−1 cm^−1. In Method B (continuous monitoring), temperature-equilibrated reactions (1 mL) were monitored at 380 nm (for pH values below 6) or 400 nm (for pH values of 6 and above). Reactions were generally monitored 0.3 min for initial rate determinations. Delta extinction coefficients (product-substrate) used for molar conversion were determined by subtracting the absorbance of substrate (at pH 5 so even very minor contaminating 4NP would not contribute) from the absorbance of 4NP for each reaction condition. […] The concentration of 4NP substrates was determined by incubating the substrate with excess enzyme until an end point was reached, adding an aliquot (0.01 to 0.1 mL) to 0.1 M NaOH, recording the absorbance at 400 nm and using the extinction coefficient of 18.3 cm^−1mM^−1. Unless indicated otherwise, for both Methods A and B, reactions were initiated by adding a small aliquot of enzyme (generally 7 μl of enzyme diluted into 10 mM sodium phosphate, pH 7.0, and incubated on wet ice or at ˜25° C.) to the 1-mL, temperature-equilibrated (25° C.) reaction mixtures. For pH studies, buffers of constant ionic strength (I=0.3 M), adjusted with NaCl, were used as indicated: 100 mM succinate-NaOH (pH 4.3-6), 100 mM sodium phosphate (pH 6-8), 30 mM sodium pyrophosphate (pH 8-9), glycine-NaOH (pH 9) and glycylglycine-NaOH (pH 9).

[6] = substrate: OC1OC[C@@H](O[C@@H]2OC[C@@H](O[C@@H]3OC[C@@H](O)[C@H](O)[C@H]3O)[C@H](O)[C@H]2O)[C@H](O)[C@H]1O; assay: purified protein, by the assay type; details: for Km: other: 100 mM succinate-NaOH, pH 5.3, 25° C
[7] = substrate: OC1OC[C@@H](O[C@@H]2OC[C@@H](O[C@@H]3OC[C@@H](O[C@@H]4OC[C@@H](O[C@@H]5OC[C@@H](O[C@@H]6OC[C@@H](O)[C@H](O)[C@H]6O)[C@H](O)[C@H]5O)[C@H](O)[C@H]4O)[C@H](O)[C@H]3O)[C@H](O)[C@H]2O)[C@H](O)[C@H]1O; assay: purified protein, by the assay type; details: for Km: other: 100 mM succinate-NaOH, pH 5.3, 25° C
[8] = substrate: O=[N+]([O-])c1ccc(O[C@@H]2OC[C@@H](O)[C@H](O)[C@H]2O)cc1; assay: purified protein, by the assay type; details: […]
Experimental: Kinetics with 4NP Substrates
as §4

[9] = substrate: OC[C@@H]1O[C@@H](OC[C@@H]2OC(O)[C@H](O)[C@H]2O)[C@H](O)[C@H]1O; assay: purified protein, by the assay type; details: other: 100 mM succinate-NaOH, pH 5.3, 25° C, pH 5.3
Experimental: as §1, §2, §3
(§5) Quenched samples were analyzed by HPLC for D-xylose. Initial rates were determined from linear regressions of [D-xylose] produced versus reaction time. […] Four 1-mL replicate reactions were conducted to supply data points for the progress curves. Two parallel reactions were conducted, under the same conditions with the same reaction components, the absorbance at 400 nm was continuously monitored (20 min) for 4NP production, and the absorbance values were converted to mM 4NP concentrations by using a delta extinction coefficient (product-substrate) of 8.22 mM^−1 cm^−1.

[10] = substrate: OC1OC[C@@H](O[C@@H]2OC[C@@H](O)[C@H](O)[C@H]2O)[C@H](O)[C@H]1O; assay: purified protein, by the assay type; details: other: 100 mM succinate-NaOH, pH 5.3, 25° C
[11] = substrate: OC1OC[C@@H](O[C@@H]2OC[C@@H](O[C@@H]3OC[C@@H](O[C@@H]4OC[C@@H](O[C@@H]5OC[C@@H](O)[C@H](O)[C@H]5O)[C@H](O)[C@H]4O)[C@H](O)[C@H]3O)[C@H](O)[C@H]2O)[C@H](O)[C@H]1O; assay: purified protein, by the assay type; details: other: 100 mM succinate-NaOH, pH 5.3, 25° C
[12] = substrate: O=[N+]([O-])c1ccc(O[C@@H]2OC[C@@H](O[C@@H]3OC[C@@H](O)[C@H](O)[C@H]3O)[C@H](O)[C@H]2O)cc1; assay: purified protein, by the assay type; details: other: 100 mM sodium phosphate, pH 7.0, 25° C, first step (4NPX2 to 4NPX+D-xylose), not well determined, pH 7.0
Experimental: as §1, §2, §3, §5

[13] = substrate: OC1OC[C@@H](O[C@@H]2OC[C@@H](O[C@@H]3OC[C@@H](O[C@@H]4OC[C@@H](O)[C@H](O)[C@H]4O)[C@H](O)[C@H]3O)[C@H](O)[C@H]2O)[C@H](O)[C@H]1O; assay: purified protein, by the assay type; details: other: 100 mM succinate-NaOH, pH 5.3, 25° C
[14] = substrate: O=[N+]([O-])c1ccc(O[C@@H]2OC[C@@H](O)[C@H](O)[C@H]2O)cc1; assay: purified protein, by the assay type; assay type: biochemical, Selenomonas ruminantium GA192; details: other: pH 5.3, 25° C
Description: Determination of Inhibition Constants

[15] = substrate: O=[N+]([O-])c1ccc(O[C@@H]2O[C@@H](CO)[C@H](O)[C@H]2O)cc1; assay: purified protein, by the assay type; assay type: biochemical, Selenomonas ruminantium GA192; details: other: pH 5.3, 25° C
[16] = substrate: O=[N+]([O-])c1ccc(O[C@@H]2OC[C@@H](O)[C@H](O)[C@H]2O)cc1; assay: purified protein, by the assay type; assay type: biochemical, Selenomonas ruminantium GA192; details: other: untreated control SXA, pH 7.0, 25° C
[17] = Isoelectric focusing of native SXA; assay type: physicochemical; details: IEF pH 3-10 gel
SXA [18] = target: T1, SXA; assay: pH stability of SXA and protection from low pH inactivation at pH 4.0 by monosaccharides
Experimental: Buffers of constant ionic strength (I=0.3 M), adjusted with NaCl, were used as indicated: 100 mM succinate-NaOH (pH 3.5-6), 100 mM sodium phosphate (pH 6-8), 30 mM sodium pyrophosphate (pH 8-9), and 100 mM glycine-NaOH (pH 9-10). […] Initial rates were determined by monitoring reactions continuously at 400 nM for 0.3 min. […] Relative activity remaining data were fitted to equation 3, which describes a first order decay: A is the relative activity remaining at varied times of preincubation, A0 is the relative activity remaining at time zero of the preincubation, kobs is the first order rate constant, and t is the time of preincubation. Apparent affinities for D-xylose and D-glucose were determined by fitting kobs values from the monosaccharide protection studies to equation 4 where kobs is the observed first order rate constant for the decay, k0 is the first order rate constant in the absence of ligand (e.g., D-xylose), I is the ligand concentration in the preincubation mixture, and Ki is the dissociation constant of ligand from the enzyme-ligand complex.

SXA [19] = target: T1, SXA; remark: listed apart in the source
Experimental: Initial rates were determined by monitoring reactions continuously at 400 nM for 0.3 min. […] Relative activity remaining data were fitted to equation 3, which describes a first order decay: A is the relative activity remaining at varied times of preincubation, A0 is the relative activity remaining at time zero of the preincubation, kobs is the first order rate constant, and t is the time of preincubation. Apparent affinities for D-xylose and D-glucose were determined by fitting kobs values from the monosaccharide protection studies to equation 4 where kobs is the observed first order rate constant for the decay, k0 is the first order rate constant in the absence of ligand (e.g., D-xylose), I is the ligand concentration in the preincubation mixture, and Ki is the dissociation constant of ligand from the enzyme-ligand complex.
Ligand protection studies contained varied concentrations of D-xylose or D-glucose in the pH 5.3 preincubation buffer at 55° C.

[20] = same reaction conditions, pH 5.3, 25° C.
[21] = other: 100 mM MES-NaOH, pH 6.00, 25° C, Method B, 50% sucrose, η/ηo 6.85, pH 6.0
[22] = other: 100 mM MES-NaOH, pH 6.00, 25° C, Method B, η/ηo 1.00, pH 6.0
[23] = other: pH 5.3, 25° C (Example 1), approximate, pH 5.3
[24] = other: 100 mM sodium phosphate, pH 7.0, 25° C, Method B, second step (4NPX to 4NP+D-xylose), pH 7.0
[25] = 4NP inhibition experiment, HPLC
[26] = D-xylose α:β ratio 1:2.5 experiment
[27] = D-xylose α:β ratio 6:1 experiment

## O=[N+]([O-])c1ccc(O)cc1 [4NP, 4-nitrophenol]
SXA [1]
  Ki: 6.28 ± 0.55 mM

## OC1OC[C@@H](O[C@@H]2OC[C@@H](O)[C@H](O)[C@H]2O)[C@H](O)[C@H]1O (stereo partly drawn) [X2, 1,4-β-D-Xylobiose]
[2]
  kcat, Bacillus pumilus enzyme: 18 s⁻¹
SXA [3]; 100 mM succinate-NaOH, pH 5.3, 25° C. (Example 1)
  Km: 4200 µM
SXA [3]; assuming noncatalyzed rate similar to a-methylglucopyranoside
  dissociation constant for the transition state: ~10^−19
SXA [3]; hydrolysis of X4, pH 5.30, 25° C.
  time of peak height of intermediate product, observed: 2940 s
SXA [3]; hydrolysis of X6, pH 5.30, 25° C.
  time of peak height of intermediate product, observed: 13384 s
SXA [3]; pH 5.3 and 25° C., relative to A2
  relative kcat values: 5600
SXA [3]; [20]
  kcat, fold larger than with 4NPX: 12 fold and 13 fold
  kcat/Km, fold larger than with 4NPX: 2 fold
SXA [4]
  pH-independent kcat: 172±2
SXA [4]; 100 mM succinate-NaOH, pH 5.3, 25° C., improved quench (Example 3)
  Km: 2060 ± 80 µM
SXA [4]; Eq. 5, I=0.3 M, 25° C.
  pKa of kcat versus pH (single group): 7.57±0.03
SXA [4]; Eq. 6, I=0.3 M, 25° C.
  pKa1 of kcat/Km versus pH: 4.86±0.06
  pKa2 of kcat/Km versus pH: 7.01±0.05
SXA [4]; Eq. 7, I=0.3 M, 25° C.
  pKa1 of 1/Km versus pH: 4.78±0.11
  pKa2 of 1/Km versus pH: 7.03±0.17
SXA [4]; SXA pH 5.3, 25° C. vs B. pumilus pH 7.15, 25° C.
  factor by which kcat of SXA is higher than that of the Bacillus pumilus enzyme: 10
SXA [4]; from pH dependencies of 1/Km
  lower affinity of dianionic SXA (D14^−E186^−) than monoanionic SXA (D14^−E186^H): 2.9 fold and 3 fold
SXA [4]; kcat/Km versus pH, Eq. 6, I=0.3 M, 25° C. (FIG. 19)
  pH-independent kcat/Km: 123±5
SXA [4]; pH 5.3, 25° C.
  kcat lower than previous determination (Example 1): 55%
  kcat/Km lower than previous determination (Example 1): 9%

B1: Selenomonas ruminantium GA192 β-D-xylosidase (SXA), wild type, SEQ ID NO: 2 (Pseudoselenomonas ruminantium) (protein)
chain: MNIQNPVLKGFNPDPSIVRAGDDYYIATSTFEWFPGVQIHHSKDLVHWHLVAHPLSTTEFLDMKGNPDSGGIWAPDLSYADGKFWLIYTDVKVVDGMWKDCHNYLTTAEDIKGPWSKPILLNGAGFDASLFHDPSGKKYLVNMYWDQRVYHHNFYGIALQEYSVAEEKLIGKPEIIYKGTDIAYTEGPHLYYINDMYYLMTAEGGTTYQHSETIARSKTIHGPYEIQPDYPLLSAWKEVHNPLQKCGHASLVETQNGQWYLAHLTGRPLPAPAGFPSREREQHAFCPLGRETAIQKIEWQDGWPVVVGGQQGSLEVEAPDLPQQEWAPTYEERDDFDKDTLNINFQTLRIPFSEHLGSLTARPGFLRLYGRESLQSKFTQAHIARRWQSFNFDAGTSVEFSPNSFQQMAGLTCYYNTENWSSIHVTWNEEKGRIIDLVTADNGTFSMPLAGAEIPIPDEVKTVHFKVSVRGRIYQYAYSFDGETFHTLPIELPSWKLSDDYVRGGGFFTGAFVGINAIDITGTALPADFDYFTYKELD
[5]; [21]
  Km: 754 ± 101 µM
[5]; [22]
  Km: 745 ± 36 µM
[5]; other: 100 mM succinate-NaOH, pH 5.3, 25° C, Method A, no sucrose, pH 5.3
  Km: 810 ± 50 µM
[5]; other: pH profile, I=0.3 M, Method B
  kcat: 3.25 ± 0.05 s⁻¹
[6]
  Km: 2120 ± 100 µM
[6]; pH 5.3
  Km: 3800 ± 600 µM
[6]; [23]
  kcat: 170 s⁻¹
[7]
  Km: 3120 ± 210 µM
[7]; pH 5.3
  Km: 2700 ± 500 µM
[7]; [23]
  kcat: 100 s⁻¹
[8]; [21]
  Km: 637 ± 81 µM
[8]; [22]
  Km: 699 ± 35 µM
[8]; [24]
  Km: 443 ± 8 µM
  kcat: 16.2 ± 0.09 s⁻¹
[8]; other: pH 5.3, 25° C, Method A, 50% sucrose, η/ηo 6.12, pH 5.3
  Km: 690 ± 35 µM
[9]
  Km: 1200 ± 100 µM
[10]
  Km: 2060 ± 80 µM
[10]; pH 5.3
  Km: 4200 ± 500 µM
[11]
  Km: 2860 ± 380 µM
[11]; pH 5.3
  Km: 3700 ± 600 µM
[12]
  Km: 690 ± 430 µM
  kcat: 50.5 ± 25.7 s⁻¹
[13]
  Km: 2750 ± 230 µM
[13]; pH 5.3
  Km: 4000 ± 300 µM
[14]; [25]
  Km: 758 ± 59 µM
  kcat: 26.7 ± 1.1 s⁻¹
[14]; D-xylose inhibition experiment
  Km: 716 ± 32 µM
  kcat: 32.1 ± 0.5 s⁻¹
[15]; [26]
  Km: 900 ± 13 µM
  kcat: 2.79 ± 0.01 s⁻¹
[15]; [27]
  Km: 880 ± 130 µM
  kcat: 2.78 ± 0.01 s⁻¹
[16]
  Km: 380 ± 5 µM
  kcat: 12.2 ± 0.05 s⁻¹

B2: SXA: β-D-xylosidase (E.C. 3.2.1.37) of Selenomonas ruminantium GA192, glycoside hydrolase family 43, GenBank AAB97967, SEQ. ID No. 2 (protein)
chain: B1 chain
modifications: selenomonas ruminantium
[17]
  isoelectric point: approximately 4.4
SXA [18]
  pH below which SXA is unstable: below 4.1
SXA [18]; pH 4.0, 25° C., absence of monosaccharide (0 mM)
  kobs, first-order inactivation rate constant of SXA: 0.0784 ± 0.0023 min⁻¹ and 0.0518 ± 0.0037 min⁻¹
SXA [19]
  temperature up to which the enzyme is stable: up to 55 °C
SXA [19]; pH 5.3, 55° C., absence of monosaccharide (0 mM)
  kobs, first-order inactivation rate constant of SXA: 0.0252 ± 0.0020 min⁻¹ and 0.0256 ± 0.0015 min⁻¹

Source: patent publication US7993884B2, “Beta-xylosidase for conversion of plant cell wall carbohydrates to simple sugars” (The United States of America as represented by the …, priority 2006, dated 2011)
